{"source": "the DeepSol protein solubility set"}
{"experiment": "soluble on expression in E. coli; label from the status in PepcDB or PDB records"}
{"sequence": "LISPDVDIEEITTRILEEAMGLTGSEQGFVATIDPLSRTLVIHTFSSMMDCLWQGGEEGRRILFPPGQDGSYPTLWGHSLNTKCPFYTNDPAGHPSAVGVPHGHIPLRHFLSVPVMLGDEVVAQISLANPGRDYTERDLEAIGRVAKFFALAIQRMRAEESIR", "soluble on expression in E. coli": "not soluble"}
{"sequence": "MNIATRPADYWQAIIFDFDGVIVESGDIKAQAFAELYRHHGETIAQAAVTYHRANGGMSRYLKFHYFQQNLLNYPPLTKEEEQELDRRFSELVMNAVISCQPVAGAEALLHRMVDQIPLFVASGTPESELRIIVEQRDLSRYFTEVRGSPRLKETLVADILSAYPLVPERVLMIGDALVDYESAHQNGIAFLGRVRPGDDNPFPESVEIVPDLCPVAI", "soluble on expression in E. coli": "soluble"}
{"sequence": "MAHHHHHHMASYQYFSYIDLYKVNNVNLDPFTEVFNDKFYLRYIYKWPHMNIITKEIDDHTSGYILGKEEGFGQDYHGHVTALSIEEDSRRTGKGVDLMTEFEKITQIIHKGNFVDLFVRVSNNPAINMYKKLGYVINEEINNYYCGNESALDMRKYLDITNS", "soluble on expression in E. coli": "soluble"}
{"sequence": "MSTKLTGYVWDGCAASGMKLSSVAIMARLADFSNDEGVCWPSIETIARQIGAGMSTVRTAIARLEAEGWLTRKARRQGNRNASNVYQLNVAKLQAAAFSQLSDSDPSKSDASKSDPSKFDASKSGKKAGFHPSESGGDPSVKSKHDPSDKKPSRPDSSQPDTQTAEQDFLTRHPDAVVFSPKKRQWGTQDDLTCAQWLWKKIIALYEQAAECDGEVVRPKEPNWTAWANEIRLMCVQDGRTHKQICEMYSRVSRDPFWCRNVLSPSKLREKWDELSLRLSPSVSTYTEKREDPYFKASYDNVDYSQIPAGFRG", "soluble on expression in E. coli": "not soluble"}
{"sequence": "MGSDKIHHHHHHMKQIGIIGCGWFGLPLAQALKQLGHKVIGTKRSIEGCEQLASLGITACPLDLNDDIFYNEAFANNTFANNINELLECQVLVINIPPGLRKKAGKAESRYLEQLSNLVHFIGPRGYQKLVFISTTGVYPAGDDAELPLSEADAKAHNDASEILLNAEALFAPMDNSCILRFAGLVGPNRHPGRFFAGKTGISGANVAVNLVHLDDCIGAVIKVINADKTAPVYNIVAPEHPSRGEFYPLATTHLGLVAPVFNQEVMPTKVISGALICQQLGFIYQYPDPLKMLYAC", "soluble on expression in E. coli": "not soluble"}
{"sequence": "MKTVMLMLTSLLMAGCSVLGKREAAEPPYELLKHDGAFEVRRYGPMVIAETILDEKSYSAASGKGFNRLAGYIFGKNRSKTSISMTAPVLQERSSEKISMTAPVLQQPQKGGWSMAFVLPEGFTLQSAPEPLDPEVKLRELPPSTIAVVTFSGLHSAANLEKYSRQLQAWLKKQGYRALSEPKLASYDPPWTIPFLRRNEVQIRIEPDHGESGKELEHHHHHH", "soluble on expression in E. coli": "soluble"}
{"sequence": "MAHHHHHHMSEINIIKAFGILLCRLKKYNPVTTGDINKFEFLFLKASYADKHWTPPKGLHENNESGLETAVRETLEETGINKDKYKLLNYQKTLKYNVKDKPKETTYYLAMLLNNEENVILSDEHTDYKWIGSHESDTYNLPESLADLLKEAEEFLNKEQL", "soluble on expression in E. coli": "soluble"}
{"sequence": "MRVYDMHVHLHEYSDREVEEILDADKSLVVVAVSDDLESAWRTLDLWHTFGGRVVPCLGFHPWNVREGRVWEAWEVLRLAYRYGVPCLGEVGLDRRFVDEYTWRVQNEVFDAFVQLAEDMGVMLNIHAPDAWKHVAHRIGWTSRARFMYHWYTGPATLPRALPEGRVWFSINSAIRVQEKSVRVAREIPLRSLVVESDGPYNYRGLRLSPLMVRETVKLVAEARGEDPGRLMEAISLNSERLLGLL", "soluble on expression in E. coli": "not soluble"}
{"sequence": "MAHHHHHHMQLMRAVTLKGFGDTDMLQISRIPKAVITRGRDILIKVSAAGVNRADAAQRKGHYLPPKGSSEVLGLEVSGIVEEVGVDVKDFKEGDKVMALLPGGGYAEYAVAHEGSVMHIPQGYSFIEAAAIPEAFLTAWQALKYHGDCCKGQKVLIHAGASGVGTAAAQLVEKYFQATALTTSSESKVEVCKNFASINFTRTPDETGMCFSPKVKRLLGEGAINLVLDSVFGGSYISEDAAVLAKDGRIVVLAFMGGATVHLNCLPLLRQRAHVMFSKLRCQSDDYKQNLVDTFEEAVIPYMNERLIVPVANKTYPLEEVAQAHMRLDDSKAWGKIVLTFNSHLSATSTNPPPTLTA", "soluble on expression in E. coli": "not soluble"}
{"sequence": "MPGLLLCEPTELYNILNQATKLSRLTDPNYLCLLDVRSKWEYDESHVITALRVKKKNNEYLLPESVDLECVKYCVVYDNNSSTLEILLKDDDDDSDSDGDGKDLVPQAAIEYGRILTRLTHHPVYILKGGYERFSGTYHFLRTQKIIWMPQELDAFQPYPIEIVPGKVFVGNFSQACDPKIQKDLKIKAHVNVSMDTGPFFAGDADKLLHIRIEDSPEAQILPFLRHMCHFIEIHHHLGSVILIFSTQGISRSCAAIIAYLMHSNEQTLQRSWAYVKKCKNNMCPNRGLVSQLLEWEKTILGDSITNIMDPLY", "soluble on expression in E. coli": "soluble"}
{"sequence": "MGSDKIHHHHHHMVAQLETPSANSSLSLPYPIEGLVQVFTSSHRNFFTSVMGQALRIAGQGTPVLIVQFLKGGIKQGQDRPIQLGQNLDWIRCDLPRCIDTPHLDESENQALQKLWLHTQQVVDEDKYSLVVLDELSLAIHFGLIPESDVLAFLAKRSPHVDIIFTGTEMPQSILDVADQITEIRRSHCP", "soluble on expression in E. coli": "not soluble"}
{"sequence": "MNNKLTPVSPGEMLAEEFLIPLGMSNYRLAKEIGVSAQRIGEIVTGKRAITVDTDLRLCRFFGLSDGWWLRLQVDYDIEMARGALEETLAKIRPWANTQEHGTPA", "soluble on expression in E. coli": "not soluble"}
{"sequence": "MALPLPDPSEQAYSDTLKTMLHERIAHSGGWISFADYMETVLYTPETGYYSGGAAKFGTAGDFVTAPEISPLFGQALARQIAPILSAVNQGSILEFGAGSGKLAVDLLCALEELNNLPQHYYILDLSADLQQRQRAMIEQHIPHLASRVSWLSALPEQFEGLILANEVLDAMPVHLVAWQNGNIAERGVIWKDQGPVWQDQPLAAGELLDVARQLPPADQFSYPLYISEISLTNRHFICSLAMLLQRGAILLVDYGFGQNEYYHPQRHQGTLMCHYRHHAHDDPFFLPGLQDITSHVDFSTIARTALDSGLQLAGYTTQAHFLINCGITDLLARTPADQPGSYLPLVSQVQRLVSPAEMGELFKVMVLSRDIDIDAASCGFTRGDLRRLLLEHHHHHH", "soluble on expression in E. coli": "not soluble"}
{"sequence": "MGSDKIHHHHHHMTAQFDDATLTKRLAKGTGEILKGVRNVGLLRGRELGEAGDDLAQNWIARVLEQHRPDDGFLSEEAADNPERLGKDRVWIIDPLDGTKEFATGRQDWAVHIALVENGVPTHAAVNLPDLGVVFHSSEVRAVGGPYAKKIAISHNRPPAVATHIAESLGFTAEPMGSAGAKAMHVLLGDYDAYIHAGGQYEWDSAAPVGVSLAAGLHCSRLDGTPLNYNNKDTYLPDVLICRPELADDILTMAAAFREENGSY", "soluble on expression in E. coli": "not soluble"}
{"sequence": "MNELLQDRVPPQNIEAEQAVLGSIFLDADVLIEAMEYVEPKDFYRRSHQLIFQTMMTLSDRNEAIDVVTIKDRLEQENLLEDVGGLSYLSDLALAVPTAANVIYYAKIVEQKSLLRNLIQTATEIVTKGFEQGEDVESILDDAERSILEVSEKRNRSGFLSISDVLNTTIANIDQLYQNDEEITGLPTGYQALDKMTAGLQAEELIILAARPAVGKTAFALNIAQNVGTKTDKAVAIFSLEMGAESLVNRMLCAEGSIEASHLRTGQLSEEEWQNLIIAMGSLSRANIYIDDTPGIKITEIRAKCRKLAQEKGNLGLILIDYLQLIEGTGKENRQQEVSDISRQLKKLAKELKVPVIALSQLSRGVEQRQDKRPVLSDIRESGSIEQDADIVAFLYRDDYYDRGEGEDGDHEPPEVDNVVEVIIEKNRSGARGTVELLFIKEYNKFSSLSPRTEF", "soluble on expression in E. coli": "not soluble"}
{"sequence": "MQPELTKTPANFPLSPLGAVVILGDIPNPELLAIPLAPTPSTMFGPRGACLVAETGALWVSDTGHHRLLGWRKLPTTDSQPADWVIGQPDFYHEGQNAKGTPGRTTVSVPTGICVCGGGLAIADAWNHRVLIWHKIPEDSNVPADLVLGQRNFSENEPNRGKQSPDANTMHWPYGVAYHQGKLFVADTGNRRLLIWQQLPTENGQPADIVLGQPDMISRNENGGGSPTAGSMRWCHDIAFWDDNLVVTDAGNNRVMIWQGIPTENNAPCAVVLGQKSFDLVEMNQGVYFPSAGSLSMPYGVGATEDWLMVADTANSRLLGWRKRESILLLQGAIADGIIGQNSFQSKSENRHFGLPTRDSLNWCYGVKVCGSTAVISDSGNNRVLLWRFLLEHHHHHH", "soluble on expression in E. coli": "not soluble"}
{"sequence": "MSQTVNIVGAGLAGSEAAYQLAQRGIKVNLIEMRPVKQTPAHHTDKFAELVCSNSLRGNALTNGVGVLKEEMRRLDSLIISAADKARVPAGGALAVDRHDFSGYITETLRNHPNVTVINEEINSIPEGYTIIATGPLTTENLAKEIVDITGKDQLYFYDAAAPIIEKESIDMDKVYLKSRYDKGEAAYLNCPMTEEEFNRFYDAVLEAEVAPTNEFEKEKYFEGCMPFEVMAERGRKTLLFGPMKPVGLEDPKTGKRPFAVVQLRQDDAAGTLYNIVGFQTHLKWGAQKEVIRLIPGLENVDIVRYGVMHRNTFINSPDVLNEKYELIKEDRIQFAGQMTGVEGYVESAASGLVAGINLAHKLLDKGEVIFPRETMIGSMAYYISHAKNEKNFQPMNANFGLLPSLEKRIKDKKERYEAQANRALEYLENYKKTLLEHHHHHH", "soluble on expression in E. coli": "soluble"}
{"sequence": "MTPEQAHARARATGPLPLGAGEPAPRGMVRLAHGDGTGLALQVWPDGATPSLLEEYQVAPVNVERSGETRRVLAAALKCCWTDLGADPWPGAPAPVEDVLSAYRALIGRGDDLMRNWAIGALRRLHDSAWLEVEDGVVRLGPRCACWPSESHAQLRELMRRLPTGDEGLTGLEVLPADGRAPAETAASVAPPEDVDEDLLGPFDERRRAEIVAAFIAVEHAAEPVHEARLPALRDPVLRRALAEMLQRRGRVLIQDREAWTSGYAPEVTAVTGTTVGEAERAVLVLVLIHSVAIPRADGLLPADSWLSPFPAQVEELRRHTRLPIGELEAALRTLRHAGLVTQVKAGEEAGGYTPGPQFHRLTPQARRGLQEELILAAGPHTPLAAAVRANRR", "soluble on expression in E. coli": "not soluble"}
{"sequence": "MNITQAAEQAIRLWFNTPDPMQRLHMAKTIRTWIRQDKFAQVDQANMPNCVQQILNIIYDGLKPQPVQLPISYYAQLWYNLLDILRRFTFLPIISPYIHQVVQMFCPRENGPQDFRELICNLISLNWQKDPHMKHCANQVFQIFNCIIMGVKNEKLRTEFAQHLKFEKLVGTLSEYFNPQVHPGMINPAIFIIFRFIISKDTRLKDYFIWNNNPHDQPPPPTGLIIKLNAVMIGSYRLIAGQNPETLPQNPELAHLIQVIIRTFDLLGLLLHDSDAIDGFVRSDGVGAITTVVQYPNNDLIRAGCKLLLQVSDAKALAKTPLENILPFLLRLIEIHPDDEVIYSGTGFLSNVVAHKQHVKDIAIRSNAIFLLHTIISKYPRLDELTDAPKRNRVCEIICNCLRTLNNFLMMWIPTPNGETKTAGPNEKQQVCKFIEIDILKKLMSCLSCEGMDTPGLLELRSTILRSFILLLRTPFVPKDGVLNVIDENRKENLIGHICAAYSWVFRQPNNTRTQSTKQQLVERTISLLLVLMEQCGAEKEVAQYSYSIDCPLNLLNGNQVKPTFIHNVLVVCDKILEHCPTRADIWTIDRPMLEGLTNHRNSDIAKAANSLLSRFPEN", "soluble on expression in E. coli": "soluble"}
{"sequence": "MTTRLEWAKASPDAYAAMLGLEKALAKAGLERPLIELVYLRTSQINGCAYCVNMHANDARKAGETEQRLQALCVWQETPYFTPRERAALAWTEQLARLSQGALPHGLLDELREHFDDKEIAELTLAVSAINAWNRFGVGMGMQPE", "soluble on expression in E. coli": "soluble"}
{"sequence": "MKKLAIAGALLLLAGCAEVENYNNVVKTPAPDWLAGYWQTKGPQRALVSPEAIGSLIVTKEGDTLDCRQWQRVIAVPGKLTLMSDDLTNVTVKRELYEVERDGNTIEYDGMTMERVDRPTAECAAALDKAPLPTPLPLEHHHHHH", "soluble on expression in E. coli": "soluble"}
